From the supplement of paper PMC10724198
± gives the standard deviation of the averaged measurements.

Tested on: Saccharomyces cerevisiae
Assay: protein stability index of tFT-peptide fusion (C-terminal peptide) (PSI (0-1 scale)); higher = more stable (slower turnover)
Settings: genetic background: wild type; temperature: 30 C
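Also: PSI is a weighted mean of sequencing reads over stability bins, variants kept only with over 10 reads, mCherry proximal and sfGFP distal, peptide attached via GGGS linker.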

TSLYGRDEETKV gave a protein stability index of 0.599 ± 0.077.

In the case of GGGAGGGGRRGR, the protein stability index is reported as 0.747 ± 0.01.

Sequence PFVSGWEKGRSF has a protein stability index of 0.757 ± 0.033.

PPNHRAGSWLAR showed a protein stability index of 0.655 ± 0.012.

FAISTSMVNLAM showed a protein stability index of 0.681 ± 0.039.

LPGCGSYLSGNV showed a protein stability index of 0.651 ± 0.056.

In the case of VAGFYCQKWFSI, the protein stability index is reported as 0.657 ± 0.08.

LSPPAPPLLFSP showed a protein stability index of 0.691 ± 0.035.

RGCCSVAFRCVV showed a protein stability index of 0.712 ± 0.066.

Work on ASPRLPSPLSLT yielded a protein stability index of 0.718 ± 0.12.

Sequence LPLPPPPLLPAP has a protein stability index of 0.732 ± 0.057.

GEEGRNEQKQDA showed a protein stability index of 0.7249 ± 0.0011.

Sequence WEWLQAKCFLSQ has a protein stability index of 0.688 ± 0.086.

In the case of LLSFLPPVFLLL, the protein stability index is reported as 0.514 ± 0.014.

GWRSGGVYDGNI showed a protein stability index of 0.6572 ± 0.0027.

For EFFAPDVVALMR, the protein stability index was 0.692 ± 0.17.

For ASLPDHYPGPKI, the protein stability index was 0.759 ± 0.27.

Sequence KTKKQEKNNKSK has a protein stability index of 0.685 ± 0.029.

GLPWRRVGGGSG gave a protein stability index of 0.699 ± 0.048.

GCSCFLAGAFVL gave a protein stability index of 0.732 ± 0.038.

ECYLYGSMDGFI showed a protein stability index of 0.588 ± 0.036.

With AASVYAFLPGLY the protein stability index was 0.651 ± 0.021.

GRGVGWRACGVV gave a protein stability index of 0.685 ± 0.018.

With YGSRWRPYLGFR the protein stability index was 0.669 ± 0.028.

RTPQPQPVVVRR gave a protein stability index of 0.776 ± 0.041.

For DNLFSPTLLWEL, the protein stability index was 0.6674 ± 0.0034.

With HVSPSPYPPGYP the protein stability index was 0.697 ± 0.026.

Sequence RGVSRQVRTVDP has a protein stability index of 0.679 ± 0.03.

FPPPLPLLSPLP gave a protein stability index of 0.671 ± 0.079.

For TVILQRNPKIIV, the protein stability index was 0.652 ± 0.058.

For WAAWYPGEHPVP, the protein stability index was 0.755 ± 0.12.

Sequence ESLSAVAAGRGM has a protein stability index of 0.689 ± 0.024.

NRHGRALPSLEA was tested, and the protein stability index was 0.644 ± 0.014.

In the case of PVLCLRMQVLSK, the protein stability index is reported as 0.532 ± 0.032.

In the case of PVPPPPPSLHPP, the protein stability index is reported as 0.636 ± 0.023.

With RHLMNYEKRNAN the protein stability index was 0.723 ± 0.053.

HPAPNPGFHFDR showed a protein stability index of 0.733 ± 0.065.

In the case of PPRFFARPPFRT, the protein stability index is reported as 0.6309 ± 0.0059.

Work on CLISDLRFVNKR yielded a protein stability index of 0.69 ± 0.056.

PHPPPAPDAPCV was tested, and the protein stability index was 0.683 ± 0.036.

For GPGLSPPYPSPA, the protein stability index was 0.704 ± 0.029.

PPNPPPPPLPPP gave a protein stability index of 0.666 ± 0.068.

YSSGILPLEMIA was tested, and the protein stability index was 0.606 ± 0.0092.

PSPPPVRPRHHH gave a protein stability index of 0.597 ± 0.069.

In the case of FLYELGTTSSPR, the protein stability index is reported as 0.73 ± 0.025.

With VFLLCSLPTFWR the protein stability index was 0.662 ± 0.062.

PAIPPPPTAAPT was tested, and the protein stability index was 0.678 ± 0.087.

VRGRQGGGVGRA was tested, and the protein stability index was 0.682 ± 0.1.

GIENTYVVIFID showed a protein stability index of 0.598 ± 0.068.

Sequence EGEEVNTGGEEA has a protein stability index of 0.642 ± 0.017.

IKIILLEKQGSK gave a protein stability index of 0.697 ± 0.033.

With TKWYDSSKKTNK the protein stability index was 0.688 ± 0.075.

Sequence GFSLSGRFFLRC has a protein stability index of 0.708 ± 0.013.

For GCFLRHAPALRF, the protein stability index was 0.735 ± 0.063.

In the case of VPWGGLRFRDWW, the protein stability index is reported as 0.659 ± 0.099.

GWAVGGGGGRGR gave a protein stability index of 0.617 ± 0.057.

FLGFGGAWSWGG showed a protein stability index of 0.766 ± 0.16.

In the case of TLIPPLLRNALP, the protein stability index is reported as 0.713 ± 0.0066.

In the case of VVSRLCCTRIRQ, the protein stability index is reported as 0.701 ± 0.04.

Work on PLCFSLFFPFRP yielded a protein stability index of 0.657 ± 0.0099.

With WARVESFTSKTQ the protein stability index was 0.6028 ± 0.0045.

Work on KQSIKKKKIKKT yielded a protein stability index of 0.634 ± 0.017.

Sequence DPRAGLGLLELT has a protein stability index of 0.644 ± 0.067.

KRRRYKEKPRKR showed a protein stability index of 0.665 ± 0.12.

GSDIIGSRDGWL was tested, and the protein stability index was 0.67 ± 0.039.

Work on FRPPPTLLLRPH yielded a protein stability index of 0.676 ± 0.026.

Sequence RRATCYGLGPTM has a protein stability index of 0.681 ± 0.013.

Sequence LIFKLQLPSPWL has a protein stability index of 0.643 ± 0.042.

AYLGFYLLPYSS gave a protein stability index of 0.717 ± 0.13.

ILVSVLRFVRNR showed a protein stability index of 0.691 ± 0.029.

TWQWGAFNRIKG showed a protein stability index of 0.68 ± 0.13.

Sequence WSSGDVRRAKEW has a protein stability index of 0.719 ± 0.078.

Sequence GWSVDGVVLGAP has a protein stability index of 0.728 ± 0.046.

Sequence GGVGGRGIGFPR has a protein stability index of 0.684 ± 0.055.

With LVRGFVDKYVIS the protein stability index was 0.652 ± 0.01.

With PLAPPFSPPPPP the protein stability index was 0.645 ± 0.0082.

With VGQCVWRVGRSS the protein stability index was 0.69 ± 0.044.

Work on DLQACGATSKAS yielded a protein stability index of 0.683 ± 0.059.

Work on WSPILEHAISDL yielded a protein stability index of 0.731 ± 0.017.

Sequence VFVRVVGDLRWE has a protein stability index of 0.578 ± 0.045.

Sequence PPAPPPPPIRPP has a protein stability index of 0.696 ± 0.033.

QGVLRAEAVDKG gave a protein stability index of 0.622 ± 0.019.

SDNIKIPKEKRK gave a protein stability index of 0.668 ± 0.026.

Work on PIQNHRFLPIVL yielded a protein stability index of 0.713 ± 0.036.

LFLPLPGPLRSS gave a protein stability index of 0.79 ± 0.13.

In the case of RRRSGGVIWNRV, the protein stability index is reported as 0.669 ± 0.009.

Sequence VIGGRQGVVRHR has a protein stability index of 0.68 ± 0.025.

For GPFHSGSASRSA, the protein stability index was 0.653 ± 0.047.

With LFFGSNLFLLAL the protein stability index was 0.595 ± 0.043.

LLHAGVCSVSFL gave a protein stability index of 0.718 ± 0.038.

With AWFCLGGRRGMV the protein stability index was 0.685 ± 0.023.

With VLRGVNGLRCRS the protein stability index was 0.6863 ± 0.0046.

TCRYSSIVDKGS gave a protein stability index of 0.612 ± 0.008.

Sequence KPGGQRTRTRRR has a protein stability index of 0.622 ± 0.025.

WMCILESWDSVD gave a protein stability index of 0.706 ± 0.099.

Work on FLLPQLFVSSSF yielded a protein stability index of 0.699 ± 0.035.

Sequence PPPPPPLPPLSP has a protein stability index of 0.717 ± 0.035.

GGAEGLHVRDVV was tested, and the protein stability index was 0.722 ± 0.051.

Sequence PPPALLAPPLPF has a protein stability index of 0.756 ± 0.096.

In the case of CSPMFTRQPLPL, the protein stability index is reported as 0.645 ± 0.027.

YTESQVCLLSAY gave a protein stability index of 0.509 ± 0.0088.
